# Measured values taken from PMC6412121.
# Biological target: TF-TDP-43-FL (UniProt Q13148)
# Assay: EMSA
# Details: biotin-UTP incorporated in transcription; EMSA: 40 mM Tris-HCl pH 7.4, 30 mM KCl, 1 mM MgCl2, 0.01% IGEPAL CA-630, 1 mM DTT, 10 ug yeast tRNA, 10 ug BSA, 10 ng RNA, 200 ng protein in 10 ul, 25 C, 20 min
# TF-TDP-43-FL, sequence (Q13148 whole entry): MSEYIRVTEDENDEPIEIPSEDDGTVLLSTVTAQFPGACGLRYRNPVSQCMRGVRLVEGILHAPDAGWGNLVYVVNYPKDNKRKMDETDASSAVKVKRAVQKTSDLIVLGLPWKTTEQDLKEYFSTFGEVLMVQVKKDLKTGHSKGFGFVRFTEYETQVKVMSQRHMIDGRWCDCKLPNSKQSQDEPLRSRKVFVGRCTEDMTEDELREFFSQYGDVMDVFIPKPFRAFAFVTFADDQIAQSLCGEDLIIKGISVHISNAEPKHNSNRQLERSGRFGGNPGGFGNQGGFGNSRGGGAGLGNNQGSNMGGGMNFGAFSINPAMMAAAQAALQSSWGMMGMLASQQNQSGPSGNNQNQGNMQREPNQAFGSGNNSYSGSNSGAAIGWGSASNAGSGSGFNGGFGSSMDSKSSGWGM
sequence,measurement,value
GGGAGAGCAAAGUGAUGAGUAAUACUGGCUGGAGCCCCAAAGAGGCACGUGUGUGUGUUUGUGUGUGUGUGUAUAUGCUUGUCAGUGCAUGCACGUGUAUGUCUGGGAGUACAAAUGGGUGCGACUGGUUGUAGGGAACUAGCUAUGUGCCUUCUAUUAGGCCAUGACAGUCAAACUGAUAAGAUCUGAUUGC [scaRNA28],binding,binds
